Assay results taken from patent publication US20060057614A1 (priority 2004, published 2006).

Biological target: sodium Nav1.2 voltage-gated channel (expressed in Xenopus oocytes)
Assay: cell-based or functional assay

tethered µ-o-conotoxin MrVIA
current flux through the channel, whole cell currents in Xenopus oocytes: 90%
